Where a chain is given by its changes, count along the chain named. Names and notes keep the numbering of the source.
Assays:
[1] = biological target: T1, CD147-FL-ECD (Asp19-192 of SEQ ID NO: 1) (human, UniProt Q865R3 19-192 (bovine entry)); assay: SPR (Biacore 3000), mAb captured by anti-mouse Fc, CD147-FL-ECD injected
T1 construct: The Asp19 N-terminus is stated for the hexa-His ECD-FL; also called ECD-FL; CD147 ECD
T1 sequence: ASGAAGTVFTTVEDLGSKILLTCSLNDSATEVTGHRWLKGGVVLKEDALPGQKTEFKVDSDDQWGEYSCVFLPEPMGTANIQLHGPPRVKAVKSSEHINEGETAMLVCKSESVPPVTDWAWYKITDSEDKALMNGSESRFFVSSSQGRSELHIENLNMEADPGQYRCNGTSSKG
Experimental: Affinity for the CD147 ECD was also measured by surface plasmon resonance (Biacore). Kinetic studies were performed at 25° C. using a BIACORE 3000 (BIAcore, Inc.) surface plasmon resonance (SPR) instrument. Goat anti-mouse Fcy specific antibody (Jackson Immunoresearch laboratories Prod #115-005-071) was covalently attached to carboxymethyl dextran coated gold surfaces (CM-5 Chip, Biacore). The carboxymethyl groups of dextran were activated with N-Ethyl-N′-(3-Dimethylaminopropyl)carbodiimide (EDC) and N-hydroxysuccinimide (NHS). The Ab was attached at pH 4.5 in 10 mM sodium acetate. Any remaining reactive sites on the surface were blocked by reaction with ethanolamine.
For kinetic binding measurements, anti-CD147 mAbs were captured using an anti-mouse Fcy specific antibody at a flow rate of 30 μL/min. Ab capture was followed by injection of CD147-FL-ECD or the N- or C-domain fragments (as described in Example 1) at concentrations between 75 and 300 nM at 60 μL/min. Association data was collected for 2 min followed by 10 min of dissociation. The surface was regenerated with 15 μL of 100 mM H3PO4, followed by 15 μL of 50 mM NaOH at 30 μL/min. All samples were prepared in D-PBS containing 3 mM EDTA and 0.005% surfactant P20. Data reported is the difference in SPR signal between the flow cell containing the captured antibody and a reference cell without captured antibody. Additional instrumental contributions to the signal were removed by subtraction of the data from the blank injection from the reference-subtracted signal. Data were analyzed by fitting association and dissociation phases at all concentrations using the BIAevaluation software (BIAcore, Inc.).

[2] = biological target: T2, native human CD147 on MDA-MB-231 breast carcinoma cells (human, UniProt P35613 140-385); assay: live cell binding assay on MDA-MB-231 cells, HRP-conjugated secondary antibody, OD 490, antibody at 10 ug/ml
T2 construct: also called EMMPRIN; MDA-MB-231 cells
T2 sequence: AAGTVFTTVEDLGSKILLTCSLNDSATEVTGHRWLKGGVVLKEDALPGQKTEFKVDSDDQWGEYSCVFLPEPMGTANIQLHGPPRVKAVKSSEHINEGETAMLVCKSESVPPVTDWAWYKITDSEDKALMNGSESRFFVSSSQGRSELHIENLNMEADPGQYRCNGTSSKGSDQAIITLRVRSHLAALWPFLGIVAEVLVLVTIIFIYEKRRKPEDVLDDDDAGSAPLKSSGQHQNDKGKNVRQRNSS

[3] = biological target: T3, recombinant CD147 ECD-Flag construct (construct #3364, human CD147 ECD1-192) (human, UniProt Q865R3 22-192 (bovine entry)); assay: cell-based or functional assay
T3 sequence: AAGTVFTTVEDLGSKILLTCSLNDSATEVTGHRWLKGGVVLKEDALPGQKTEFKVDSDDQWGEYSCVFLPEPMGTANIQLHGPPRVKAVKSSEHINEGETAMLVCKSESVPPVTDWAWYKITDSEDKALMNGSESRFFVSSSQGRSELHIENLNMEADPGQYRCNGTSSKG

B1: 4A5(mIgG1) (antibody, V domains shown)
VH: EVQLQQSGPELVKPGASVKISCKASGYTFTDYYMNWVKQSHGKSLEWIGGINPNNGGTSYNQKFKGKATLTVDKSSSTAYMELRSLTSEDSAVYYCARNDGYRGYAMDYWGQGTSVTVSS
VL: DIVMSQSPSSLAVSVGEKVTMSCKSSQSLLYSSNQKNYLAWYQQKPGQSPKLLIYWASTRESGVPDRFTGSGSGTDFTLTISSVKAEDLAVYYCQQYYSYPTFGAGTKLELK
notes: Murine IgG1 from hybridoma; also called C1177A; 4A5 mAb
Kd [1]: 100 nM | binding result [2]: binds

B2: 2C8(mIgG1) (antibody, V domains shown)
VH: EMKLEESGGGLVQPGGSMKLSCVASGFTFSNYRMNWVRQSPEKGLEWVAQIRLKSYNYATHYAESVKGRFTISRDDSKSSVYLQMNNLRAEDTGIYYCTPDGSDYWGQGTTLTVSS
VL: DILMTQSPSSMSVSLGDTVSITCHASQGISSSIGWLQQKPGKSFKGLIYHGTNLEDGVPSRFTGSGSGADYSLTISSLESEDFADYYCVQYAQFPYTFGGGTKLEIK
notes: Murine IgG1 from hybridoma; also called C1170A; C1170
Kd [1]: 5 nM | MMP-1 IC50 [3]: 20 µg/mL

B3: 5F6(mIgG1) (antibody, V domains shown)
VH: B2 VH with R33W
VL: SIVMTQTPKFLLVSAGDRVTITCKASQSVSNDVAWYQQKPGQSPKLLIYYASNRYTGVPDRFTGSGYGTDFTFTISTVQAEDLAVYFCQQDYSSPYTFGGGTKLEIK
notes: Murine IgG1 from hybridoma; Two light chain V-regions were found for 5F6; also called C1171A; 5F6 mAb
Kd [1]: 4 nM

— patent publication US20140079711A1 (Janssen / Centocor, published 2014)
